Patent publication US20200197547A1 (INSERM INSTITUT NATIONAL DE LA SANT ET DE LA RECHERCHE M …, published 2020)

Assays:
[1] = biological target: T1, Mesothelin (MSLN) on MSLN-positive HCC70 human triple negative breast cancer cells (human, UniProt Q13421 296-598); assay: cell-based or functional assay
[2] = biological target: T2, Human MSLN recombinant protein (R&D systems) (human, UniProt Q13421 296-580, limits assumed); assay: saturation radioligand binding on plate-immobilized recombinant human MSLN
T2 construct: Bought protein, 100 ng immobilized on immunosorbent plates; also called recombinant MSLN; recombinant human mesothelin
T2 sequence (Q13421 other isoform, or with tags, fused parts or gaps limits assumed): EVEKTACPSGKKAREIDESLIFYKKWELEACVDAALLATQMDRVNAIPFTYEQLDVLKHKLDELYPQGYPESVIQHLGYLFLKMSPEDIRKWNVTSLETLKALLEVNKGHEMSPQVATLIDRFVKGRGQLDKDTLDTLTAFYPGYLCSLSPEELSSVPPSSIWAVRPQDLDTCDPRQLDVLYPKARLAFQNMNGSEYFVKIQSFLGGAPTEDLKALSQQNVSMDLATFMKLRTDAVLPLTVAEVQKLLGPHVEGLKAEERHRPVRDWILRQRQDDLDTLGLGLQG
Description: (§1) Human MSLN recombinant protein (100 ng, R&D systems) was immobilized on immunosorbent plates (Corning Costar Stripwell, Sigma Aldrich) overnight at 4° C., and blocked with 1% milk. Serial dilutions of ^99mTc-A1 and ^99mTc-C6 from 1 μM to 0.8 nM were incubated for 1 hour. Unbound activity was removed by 5 serial washes with PBS-Tween 0.1%. The radioactivity in each well was determined using a γ-counter (Wizard², Perkin Elmer). Unspecific binding was determined by incubation of ^99mTC-A1 or ^99mTc-C6 in empty wells. Results were corrected from background and decay, and the [^99mTc-A1] and [^99mTc-C6] binding curves were fitted using a nonlinear regression equation (specific binding: Y=B max*X/(KD+X) with X being the radioligand concentration) and using GraphPad Prism 6 software to determine KD values. Uptake was normalized to the Bmax for graphic representation of 3 independent experiments.

[3] = biological target: T1, Mesothelin (MSLN) on MSLN-positive …; assay: radioligand binding on cells in suspension, 40 nM 99mTc-A1, 1 h at 4 C, gamma counting
Description: (§2) HCC70 and MDA-MB-231 cells were rinsed with PBS, detached using EDTA 5 mM, and resuspended at 200,000 cells per tube. Cells were incubated for 1 hour with PBS-BSA 1% and then with 40 nM of ^99mTc-A1 or 150 nM of ^99mTc-C6 for 1 h at 4° C., in the absence or presence of a 200-fold excess of unlabeled A1 or C6. Cell suspensions were centrifuged at 400 g during 5 min at 4° C., and washed 5-times with cold-PBS. Cells were then transferred to new tubes and radioactivity was determined using a γ-counter (Wizard², Perkin).

[4] = biological target: T2, Human MSLN recombinant protein (R&D …); assay: saturation radioligand binding on plate-immobilized recombinant human MSLN, gamma counting, nonlinear fit
Description: as §1

[5] = biological target: T2, Human MSLN recombinant protein (R&D …); assay: saturation radioligand binding on recombinant human MSLN (as told in the discussion); value told in the discussion; recombinant human MSLN
Description: as §1

[6] = biological target: T1, Mesothelin (MSLN) on MSLN-positive …; assay: competition on HCC70 cells, 200-fold excess of unlabeled A1 against 40 nM 99mTc-A1 (competitor: 99mTc-A1)
Description: as §2

T1 sequence (Q13421 other isoform, or with tags, fused parts or gaps limits assumed): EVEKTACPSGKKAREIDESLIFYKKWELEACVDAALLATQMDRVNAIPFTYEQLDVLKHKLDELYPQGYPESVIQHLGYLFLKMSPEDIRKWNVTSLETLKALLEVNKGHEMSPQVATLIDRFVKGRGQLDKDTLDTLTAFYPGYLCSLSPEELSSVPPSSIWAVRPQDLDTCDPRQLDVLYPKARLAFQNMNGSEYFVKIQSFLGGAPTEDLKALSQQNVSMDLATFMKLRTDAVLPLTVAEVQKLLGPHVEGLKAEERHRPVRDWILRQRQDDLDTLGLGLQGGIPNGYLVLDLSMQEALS

Binder | 99mTc-A1 uptake in HCC70 tumors by SPECT quantification, with competition (150-fold excess of unlabeled A1) [1] | fold decrease in 99mTc-A1 uptake in HCC70 tumors by SPECT quantification, co-injection of a 150-fold excess of unlabeled A1 [1] | fold decrease in 99mTc-A1 uptake in HCC70 tumors, ex vivo biodistribution, with excess of unlabeled A1 [1] | fold affinity against 99mTc-C6 [2] | fold binding on HCC70 cells against MSLN-negative MDA-MB-231 cells [3] | Kd [4] | Kd [5] | fold decrease in 99mTc-A1 binding to HCC70 cells [6]
99mTc-A1 (anti-mesothelin A1 single domain antibody radiolabeled with technetium-99m at its C-terminal hexahistidine tag) (VHH, 99mTc-tricarbonyl at the C-terminal hexahistidine-tag (His-Tag), Labeled by the tricarbonyl method; also called radiolabeled A1 nanobody) VHH: QVQLVQSGGGLVHPGGSLRLSCAASGIDLSLYRMRWYRQAPGKERDLVALITDDGTSYYEDSVKGRFTITRDNPSNKVFLQMNSLKPEDTAVYYCNAETPLSPVNYWGQGTQVTVSH | 0.6 % ID/g | ~7 fold | ~7 fold | > 2 fold | 7.9 fold | 43.9 nM | 35 nM | –
A1 anti-mesothelin single domain antibody, unlabeled (VHH, Same protein as in m1, without the radiolabel; also called unlabeled A1; A1 nanobody) VHH: QVQLVQSGGGLVHPGGSLRLSCAASGIDLSLYRMRWYRQAPGKERDLVALITDDGTSYYEDSVKGRFTITRDNPSNKVFLQMNSLKPEDTAVYYCNAETPLSPVNYWGQGTQVTVSH | – | – | – | – | – | – | – | 6 fold
